Experiment [1] has as its target T1, human K12, full length, on transfected cells (human, UniProt Q8WVN6 29-248).
T1 construct: also called SECTM1
T1 sequence: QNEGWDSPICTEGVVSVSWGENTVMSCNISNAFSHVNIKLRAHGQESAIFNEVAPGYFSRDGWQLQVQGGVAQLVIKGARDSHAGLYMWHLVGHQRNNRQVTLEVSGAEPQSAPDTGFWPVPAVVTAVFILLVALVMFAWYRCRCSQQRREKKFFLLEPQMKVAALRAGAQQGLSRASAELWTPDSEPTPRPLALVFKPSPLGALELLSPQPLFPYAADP
The experiment is described as follows: Fc fusion binding to transfected cells, detected with 125I anti-human Fc.

The target of experiment [2] is T2, murine CD7, full length, on cells (mouse, UniProt P50283 24-210).
T2 construct: On transfected COS-1 cells; For the proliferation read-out it is endogenous on BALB/c lymph node cells; also called MuCD7; mouse CD7
T2 chain: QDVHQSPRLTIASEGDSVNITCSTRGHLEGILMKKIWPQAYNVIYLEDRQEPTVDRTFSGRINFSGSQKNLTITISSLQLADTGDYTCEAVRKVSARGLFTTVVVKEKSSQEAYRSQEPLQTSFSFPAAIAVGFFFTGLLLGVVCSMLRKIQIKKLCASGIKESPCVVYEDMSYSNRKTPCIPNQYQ
The experiment is described as follows: HuK12-Fc on transfected COS-1 cells, 125I anti-human Fc, phosphorimager. The procedure: COS-1 cells were transfected with an expression vector encoding full length HuCD7 (human CD7), HuCD7-TR (human CD7 containing an internal deletion of the 36 amino acid tandem repeat), MuCD7 and vector only cDNA using DEAE-Dextran. However, any of a large number of expression vectors that are commercially available from numerous companies (e.g., Clontech Inc., Palo Alto, Calif.) could also be used to express the desired cDNAs. Two days post transfection the cells were assayed for the capacity to bind HuK12-Fc as previously described for other Fc fusion proteins (Lyman et al.,1993, Cell 75:1157-1167) with the following modifications. The binding media (RPMI 1640, 1%FBS, 0.02% NaAzide, 20 mM HEPES, pH7.2) was modified to include […] MnCl₂. In some experiments, the transfected cells were incubated with zero, 20 ug/ml or 2 mg/ml of Con A in BM/MM prior to binding with the Fc proteins. Following incubation for 30 minutes at room temperature and the continued presence of Con A, 1 ug/ml of either HuK12-Fc or MuK12-Fc was then added to the appropriate slides. Binding of the Fc protein was detected with [¹²⁵I] mouse anti-Human Fc antibody as previously described (Lyman, 1993). After binding the iodinated antibody, the cells were washed and then the radioactivity was quantitated by Storm Phosphorimager. […]

Experiment [3] concerns the target T3, human CD7, full length, on cells (human, UniProt P09564 26-240).
T3 construct: On transfected COS-1 or CV-1/EBNA cells, and endogenous on Jurkat, KG-1 and NK cells; also called HuCD7
T3 sequence: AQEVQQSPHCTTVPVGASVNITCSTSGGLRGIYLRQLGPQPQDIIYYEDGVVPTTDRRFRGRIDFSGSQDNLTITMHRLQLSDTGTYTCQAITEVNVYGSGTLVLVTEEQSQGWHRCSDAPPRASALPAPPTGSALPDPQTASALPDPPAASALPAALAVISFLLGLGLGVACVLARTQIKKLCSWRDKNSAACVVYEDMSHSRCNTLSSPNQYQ
The experiment is described as follows: preliminary cell binding experiments on Jurkat and KG-1 cells.

The target in experiment [4] is T3, human CD7, full length, on cells. The experiment is described as follows: Fc fusion binding to transfected cells (Example 5).
Experiment [5] addresses T4, murine K12, full length, on transfected cells (mouse, UniProt Q9JL59 29-212).
T4 construct: also called mouse K12; murine homologue of K12
T4 sequence: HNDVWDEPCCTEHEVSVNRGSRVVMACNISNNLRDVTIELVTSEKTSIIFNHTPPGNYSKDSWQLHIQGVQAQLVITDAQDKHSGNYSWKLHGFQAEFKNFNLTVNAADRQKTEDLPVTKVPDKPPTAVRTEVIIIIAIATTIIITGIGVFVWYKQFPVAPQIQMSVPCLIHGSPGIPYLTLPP
Kind of experiment: Fc fusion binding to transfected cells, detected with 125I anti-human Fc.

The record followed here is patent publication US20020141999A1 (IMMUNEX, published 2002).

B1: murine CD7-Fc fusion protein (Fc fusion)
chain: QDVHQSPRLTIASEGDSVNITCSTRGHLEGILMKKIWPQAYNVIYLEDRQEPTVDRTFSGRINFSGSQKNLTITISSLQLADTGDYTCEAVRKVSARGLFTTVVVKEKSSQEAYRSQEPLQTSFSFP
notes: also called mouse CD7-Fc; not shown: Fc portion of the CD7-Fc fusion is not described
On to B1, for which, in experiment [1], the binding result is listed as “no binding”.

B2: human K12-Fc fusion protein (extracellular domain of human K12 fused to the Fc portion of human IgG1) (Fc fusion)
chain: QNEGWDSPICTEGVVSVSWGENTVMSCNISNAFSHVNIKLRAHGQESAIFNEVAPGYFSRDGWQLQVQGGVAQLVIKGARDSHAGLYMWHLVGHQRNNRQVTLEVSGAEPQSAPDTG
notes: Exists as a dimer in solution; No linker or junction is described; also called HuK12-Fc; HuK12Fc; not shown: Fc portion of human IgG1, as described in U.S. Pat. No. 5,457,035
Turning to B2, the “fold less binding than to full length HuCD7” value in experiment [2] is about 4 fold. This molecule came in with a Ka in experiment [3] of about 1e+08 M⁻¹.

B3: mouse K12-Fc fusion protein (extracellular domain of murine K12 fused to the Fc portion of human IgG1) (Fc fusion)
chain: HNDVWDEPCCTEHEVSVNRGSRVVMACNISNNLRDVTIELVTSEKTSIIFNHTPPGNYSKDSWQLHIQGVQAQLVITDAQDKHSGNYSWKLHGFQAEFKNFNLTVNAADRQKTEDLPVTKVPDKPPTAVRTE
notes: Exists as a dimer in solution; also called MuK12-Fc; not shown: Fc portion of human IgG1, as described in U.S. Pat. No. 5,457,035
As for B3, the binding result in experiment [4] is given as “no binding”.

B4: human CD7-Fc fusion protein (Fc fusion)
chain: AQEVQQSPHCTTVPVGASVNITCSTSGGLRGIYLRQLGPQPQDIIYYEDGVVPTTDRRFRGRIDFSGSQDNLTITMHRLQLSDTGTYTCQAITEVNVYGSGTLVLVTEEQSQGWHRCSDAPPRASALPAPPTGSALPDPQTASALPDPPAASALP
notes: not shown: Fc portion of the CD7-Fc fusion is not described
Regarding B4, the binding result in experiment [5] is recorded as “no binding”.
